In paper PMC10267556 (Nature Communications, 2023):

B1: TH236 (antibody, V domains shown)
VH: QVQLVESGGGLVKPGGSLRLSCAASGFMISDSYMNWIRQPPGKGLEWVSYISSNGYAIYYGDSVKGRFTISRDNAKNFLYLQMNSLRVEDTAVYYCAREQPGGYYDSSGYRLDPWGQGILVTVSS
VL: QSALTQPASVSGSPGQSITISCTGTSSDVGGYNYVSWYQQHPGKAPKLMIYDVSNRPSGVSNRFSGSKSGNTASLTISGLQAEDEADYYCSSYTSSSTLYVFGTGTKVTVL
notes: IgG1 (D2:p3)
B2: TH003 (antibody, V domains shown)
VH: EVRLLESGGGLVQPGGSLRLSCAASGFTFNDYAMSWVRQAPGEGLEWVSTISYSGGSTYYADSVKGRFTISRDNSKNMLYLQMNSLRAEDTALYYCANGVATADWYFDLWGRGTLVTVSS
VL: QSALTQPRSVSGSPGQSVTISCTGTSSDVGGYNYVSWFQHHPGKAPKLMIYDVTDRPSGVPDRFSGSKSGNTASLTISGLQAEDAADYYCCSYAGTYTVFGGGTKLTVL
notes: IgG1 (D2:p3)
B3: TH132 (antibody, V domains shown)
VH: EVQLVESGGGLVQPGGSLRLSCAASGITVSRNYMSWVRQAPGKGLEWVSVMFAGGSTFYADSVKGRFTISRDNSKNTLYLQMNSLRAEDTAVYYCARDLGVVGATDYWGQGTLVTVSS
VL: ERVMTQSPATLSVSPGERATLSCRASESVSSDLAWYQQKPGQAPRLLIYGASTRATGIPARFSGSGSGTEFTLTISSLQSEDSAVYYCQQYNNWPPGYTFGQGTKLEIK
notes: IgG1 (D2:p3)
B4: TH132 monoclonal antibody (IgG) (antibody, V domains shown)
VH: EVQLVESGGGLVQPGGSLRLSCAASGITVSRNYMSWVRQAPGKGLEWVSVMFAGGSTFYADSVKGRFTISRDNSKNTLYLQMNSLRAEDTAVYYCARDLGVVGATDYWGQGTLVTVSS
VL: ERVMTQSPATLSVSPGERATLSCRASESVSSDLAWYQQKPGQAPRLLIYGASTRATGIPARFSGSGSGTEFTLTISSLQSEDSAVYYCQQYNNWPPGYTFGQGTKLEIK
notes: copies: 2 + 2
B5: TH281 (antibody, V domains shown)
VH: EVQLVESGGGLVQPGGSLRLSCAASEITVSRNYMSWVRQAPGKGLEWVSVMFAGGSTFYADSVKGRFTISRDNSKNTLYLQMNSLRAEDTAVYYCARDLGVVGATDYWGQGTLVTVSS
VL: not shown
notes: IgG1 (D2:p3)
B6: TH272 (antibody, V domains shown)
VH: QITLKESGPTLVKPTQTLTLTCTFSGFSLSTGGVSVGWIRQPPGKALEWLALIYWDDDKRYSPSLESRLTITKDTSKNLVVLTLTNMDPVDTATYYCAHKTIPTIFDYWGQGTLVTVSS
VL: QSALTQPASVSGSPGQSITISCTATSSDVGAYQYVSWYQQYPGKAPKLMIYEVSKRPSGVSNRFSGSKSGNTASLTISGLQAEDDAYYYCNSYTTSSVVFGGGTKLTVL
notes: IgG1 (D2:p3)
B7: TH027 (antibody, V domains shown)
VH: QITLKESGLTLVRPTQTLTLTCTFSGFSLINSGVGVGWIRQPPGKALEWLALIYWDDDKRYNPSLRSRLTISKATSKNQVVLTMTNMDPVDTATYYCTHRGPGHNTPIYFEFWGQGALVTVSS
VL: QSVLTQSPSASGTPGQRVTISCSGSRSNIGSNFVYWFHQLPGTAPKLLIHSNDQRPSGVPDRFSGSNSGTSASLAISGLRSEDEADYYCAAWDDSLSSWVFGGGTKLTVL
notes: IgG1 (D2:p3)

Tests used:
Test in all cases: SPR
Settings in all cases: both partners purified
RBD (BA.4/5) = target: T1, RBD (BA.4/5) (SARS-CoV-2, Omicron BA.4/5, strain)
T1 construct: source: bought: Sino Biological

RBD (BA.1) = target: T2, RBD (BA.1) (SARS-CoV-2 Omicron BA.1, strain)
T2 construct: source: bought: Sino Biological

Spike (BA.1) = target: T3, Spike (BA.1) (SARS-CoV-2, Omicron BA.1, strain)
T3 construct: source: bought: Sino Biological

Spike (BA.4/5) = target: T4, Spike (BA.4/5) (SARS-CoV-2, Omicron BA.4/5, strain)
T4 construct: source: bought: Sino Biological

Spike (XBB.1.5) = target: T5, Spike (XBB.1.5) (SARS-CoV-2, Omicron XBB.1.5, strain)
T5 construct: source: bought: Sino Biological

Spike (XBB) = target: T6, Spike (XBB) (SARS-CoV-2, Omicron XBB, strain)
T6 construct: source: bought: Sino Biological

[1] = target: SARS-CoV-2 Omicron XBB.1.5 spike protein (SARS-CoV-2 Omicron XBB.1.5, strain)
[2] = target: SARS-CoV-2 Omicron XBB spike protein (SARS-CoV-2 Omicron XBB, strain)

Row | Binder | Kd (RBD (BA.4/5)) | Kd (RBD (BA.1)) | Kd (Spike (BA.1)) | Kd (Spike (BA.4/5)) | Kd (Spike (XBB.1.5)) | Kd (Spike (XBB)) | Kd [1] | Kd [2]
1 | B1 | 0.621 nM | 0.3 nM | 0.0867 nM | 0.602 nM | – | – | – | –
2 | B2 | 0.484 nM | 1.29 nM | 2.55 nM | 1.59 nM | – | – | – | –
3 | B3 | 0.484 nM | 0.726 nM | 1.26 nM | 0.00171 nM | 1.09 nM | 1.34 nM | – | –
4 | B4 | – | – | – | – | – | – | ~1 nM | ~1 nM
5 | B5 | 0.00781 nM | 0.119 nM | 0.517 nM | – | – | – | – | –
6 | B6 | 0.045 nM | 0.296 nM | 1.33 nM | 0.000976 nM | – | – | – | –
7 | B7 | 0.752 nM | 0.838 nM | 7.06 nM | 1.86 nM | – | – | – | –
